The results in this text go back to US20090081786A1 (published 2009).

B2: annexin V (other)
chain: AQVLRGTVTDFPGFDERADAETLRKAMKGLGTDEESILTLLTSRSNAQRQEISAAFKTLFGRDLLDDLKSELTGKFEKLIVALMKPSRLYDAYELKHALKGAGTNEKVLTEIIASRTPEELRAIKQVYEEEYGSSLEDDVVGDTSGYYQRMLVVLLQANRDPDAGIDEAQVEQDAQALFQAGELKWGTDEEKFITIFGTRSVSHLRKVFDKYMTISGFQIEETIDRETSGNLEQLLLAVVKSIRSIPAYLAETLYYAMKGAGTDDHTLIRVMVSRSEIDLFNIRKEFRKNFATSLYSMIKGDTSGDYKKALLLLCGEDD
notes: 10 µg annexin V was run on SDS-PAGE, blotted to nitrocellulose and used as the immobilized partner in the overlay assay; also called immobilized annexin V

In experiment [1] the target is B2. Kind of experiment: overlay assay on blotted annexin V, FIG. 1D.
Procedure: (§1) The strips were incubated with blocking buffer (50 mM Tris pH 7.5, 200 mM NaCl, 3% bovine serum albumin, 0.1% PEG20). […] The strips where then washed with wash buffer (50 mM Tris pH 7.5, 200 mM NaCl, 0.1% PEG20, 12 mM β-mercaptoethanol), and then incubated with fixative (0.2% formaldehyde in PBS) and neutralizing solution (0.2M glycine in PBS) at room temperature 20 min each. After washing with buffer, the strips were probed with antibodies according to the overlay protein, and resulting bands were visualized using ECL Western blotting.
The target of the next experiment is T1, full-length δ-PKC (Mus musculus (Mouse), UniProt P28867 1-674).
T1 construct: Full-length δ-PKC in the overlay assay; also called δ-protein kinase C; delta PKC
Kind of experiment: overlay assay on blotted annexin V (figure legend, FIGS. 1A-D).

In experiment [2] the target is B2. Nature of the experiment: overlay assay on annexin V blotted to nitrocellulose, FIG. 1D.
Procedure: as §1
The target of experiment [3] is B2. Kind of experiment: overlay assay on blotted annexin V (figure legend, FIGS. 1A-D).
Procedure: as §1

Procedure for full-length δ-PKC: as §1

B1: glutathione-S-transferase-delta V5 PKC fusion protein (other)
chain: PKVKSPSDYSNFDPEFLNEKPQLSFSDKNLIDSMDQEAFHGFSFVNPKFEQFLDI
notes: Used as crude bacterial cell lysate (30 µg) containing the fusion protein; also called GST-δV5; δ-V5; not shown: glutathione-S-transferase (GST) fusion tag
Regarding B1, the binding result with annexin V [1] was “binds”. As to B2, the binding result in the experiment with full-length δ-PKC is given as “binds”.

B3: ε-V1 (V1 region of ε-PKC) (other)
chain: MVVFNGLLKIKICEAVSLKPTAWSLRHAVGPRPQTFLLDPYIALNVDDSRIGQTATKQKTNSPAWHDEFVTDVCNGRKIELAVFHDAPIGYDDFVANCTIQFEELLQNGSRHFEDWIDLEPEGKVYVIIDLSGSSGEAPKDNEE
As to B3, the binding result with annexin V [2] is listed as “no binding”.

B4: myelin basic protein (MBP)-delta V1 PKC fusion protein (other)
chain: MAPFLRISFNSYELGSLQAEDDASQPFCAVKMKEALTTDRGKTLVQKKPTMYPEWKSTFDAHIYEGRVIQIVLMRAAEDPMSEVTVGVSVLAERCKKNNGKAEFWLDLQPQAKVLMCVQYFLEDGDCKQSMRSEEEAMFPTMNRRGAIKQAKIHYIKNHE
notes: Used as crude bacterial cell lysate (30 µg) containing the fusion protein; also called MBP-δV1; δ-V1; not shown: fusion tag printed as 'myelin basic protein (MBP)'
As to B4, the binding result with annexin V [3] is “binds”.
